Test results from the domain aggregation screens of Martell et al. (2025).

Test: soluble fraction after stress (log2 fold change); higher = more stays soluble; pooled small domains, quantitative proteomics
Settings: stress: 50 degC
In short: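 Quantitative proteomics served as the high-throughput read-out for pooled custom libraries of small protein domains. Each was stressed at 50°C. Aggregation propensity is expressed as the base-two log fold change in soluble protein after stress. A higher value means a larger share of the protein remains in solution.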

Sequence	soluble fraction (log2)
HMLILDTDGRYVIKRGDSLSEILEKIANGSNINLNLLKRAFVTANPKAFKRANPNWMYANAR	-0.113
HMLIPTISVTKEGQLRFENIPVSWEELGTRLRDVSDLDKIKIYADAESDALTISEIMKTAANVGIVQFVLV	-0.578
HMLIRKGVVSFFNDAKGYGFIKDLVTQESAFVHVNSLSETIKEHDKVTFEVEMGHKGANAVNVKLVK	-1.03
HMLIVLKPNVSQEEIDHIVDKIRSLSLEPHVSTGVQRTIITVIGDEDVIREQPLEALAGVESVKSILKP	-0.0145
HMLKGTVKWFNESKGFGFIEQEEGKDVFVHYSAITGSGFKTLNEGDKVQFEIVDGPKGPAAANVSK	-0.0666
HMLKKGDQVYIISGKDKGKLGVVSQIVSEERILVDGINLAKKHVKPNPNKNETGGVVEKEMPIHASNVMI	-0.0911
HMLKLTDRQKVILSILMSDGEKTASWIASQLGVGLRSVQLDLSYLRNNGFIKKASKSTHSAWIVLKK	-2.5
HMLKPIHKDWSPNGDAKEILLKAGITEEFIQKELPEFIMYWSERNEESDIWNSKFIAHIRRRWGRFS	-1.14
HMLKPVVLLGARGLTDAVEKEVERALDEHGLIKIHVPSDDREERDEIYTTLADKLNAARIQAIGKMLVLW	-0.162
HMLKSGSAVAQARDVILEKGVPVHINEILDALGKGDTREAKASLTSSLAAYVRRGEIFTRPAPNTFGLVEL	-0.372
HMLKTADAIASVLLTRIQAGEFSAGRLPAERALSEAFSTTRITLREALGKLEAQGMIYRELRRGWFIA	-1.76
HMLLFNPGEVLKGFVLQSGTNNRVLLQIGDSRVIADTQTPLKAGEQLVLRVEETGPKTILQILG	0.101
HMLLGDYIQKLRNQRGLSQQEFADKLGIGRSTLANYEQNKRSPDYETLIEISKFFNVSIDELLGV	-0.484
HMLLLASTPAEQTIIQLLAEGWRDGDQLQQRSHLSAADFSTALTMLEVNGSIKPLGANHWALTH	-0.919
HMLLPANLTKSQRNIAERVARGQSNLEIAADLNITERTVKAHLTSIYEKTKTGNRLNLALLINLG	-0.442
HMLLPGEELRVMIIQEGKEYGQGVGYLDDGTMVVVEDGQRALNRTENVVVTKVLQTTAGRMIFAK	-0.631
HMLLQENRKLHSKLEELQLISRAKAVLIEYLKLTEPQAHRYIEKQAMDLGLTRPQVALNILKTYE	-0.202
HMLLQTAVISTDIVNMRAEPTTNSSVIRKLTKGSDITINQEKDGWYKISDDQGNSGWIVTWAAKPT	0.0497
HMLMDVRVPDIIGVEINQAKEILTASSLLIGKITYVSLPEIEKDLVIETSVLAGRRVSAGTVIDITVNKE	-0.76

Sequence	soluble fraction (log2)
HMLMKPQKTRDVLRYLKSIGWVRLRGGQGSHEIWGLPDGSIRAVIPAGHREISAGVLMQLKRAGVDVPTQW	-0.557
HMLMLTPGQIAQTLDVSTATVRRWSARYARHLSPNTPGKKRSYTVDDLAVLTRVRDLSATGTPLAQIDQAL	-2.02
HMLMLTPGQVSNSLNVSTATVRRWSARFARHLSPQPPNRKRSYTPDDLATLARVRDLSASGTSLAQIDIAL	-2.51
HMLMRSPDFLIGWFQNLVAKRETFNDQVQAKNLIEAGKQHIQGEDFDRLLEVNRRLFSLLPQREQE	0.215
HMLNAPFGFRIEDDTLIPIPEEAKVVRQIFRYYLQGMGFGKIAQELNGQDVPGKPWGKERIKYILSNEKYI	-2.09
HMLNERQKKIIKILKDNKNWMTGKELSEFLNVSDRTIRSDIEYINRYNNALIESNVKNGYHLNFE	0.12
HMLNIVTIFEEQFGRPLSPIELNIIKDWKESDYSDEMIVKALKEAVKSQVLNFRYVEGILNNWAKNG	-0.568
HMLNLNEAEKSIYVLIKKNESNNLNKVKEDSNLSNKAWDKGIKNLVKNNLVKVVKSNEGLFIQLV	-0.345
HMLNLNILTDKEKFIAKLISRGLSDSLIAKELYISISTVRSHVNSIYGKTNIKNRSHLASSFLYFELGNLL	-0.135
HMLNPMILLTKGGENIRLDKFLSSHLSDLSRTQIQKMVKEGLVLVNGEPSKVGLKLDGSETIQYTLPK	-0.00634
HMLNSISIKTNKKIDFLEKNEHLVNFVYEKETMEHIYNLSYENKKDLQELQNKLSDIEGIIKINTDL	0.133
HMLPDVSITGHIFIRSGSRLNRIFVGESTYHVGDMLDGKWLIESINSDSLELRSGTQTTELPL	-2.58
HMLPDYLIELKKKADSGDAVSQNDIGNIYLYGLPRVNIYPDEKNIGIGIDYLYKAAWQDQVNAMTTI	-0.0456
HMLPELQPGQTFSARIQQALPDNTYRALVAGKQLTLQLPEGAKAGDELELVVLDRSARVIIARQVD	-0.146
HMLPGERFKVKIAQAGKEKKQGIGYLNDGTMVVIENGIEKVGEEVEAVVIKVIQSSAGKIIFSEVAK	0.195
HMLPGKEIPLPEFLREAFARNEPALENFQNLAPSYRRQYILWITSAKTPETVQKRISESIGLLKENRKLGM	0.0472
HMLPGLGPIERAQFMLQAIPGISPTRSAALIDKFGSIAGIAQASIKDIQTIEGIGKKTATTLYEVLNAG	-0.341
HMLPISGDDRDALDMAALILKQYDSLPILKEFANVVTKLQTVLDGVVSNSIEARRQMIQFEE	-0.0336
HMLPITPGQKYKFVVKSAEEAAAIIRDKLGEMAQVISVRQVEGEGLARFLKSPKLEIIAQVPVA	-0.132
